Data from FireProtDB (doi:10.1021/bi0115028).
Where “and” joins values, the source holds several entries; their conditions need not be identical. Equal values may be shown once.

Conditions: Bos taurus, 25 °C, NaCl 2 M, whole UniProt chain shown
[1] = pH 2.3, GdnHCl, Absorbance, H3PO4, NaOH
[2] = pH 2.3, GdnHCl, CD, H3PO4, NaOH
[3] = pH 6.2, GdnHCl, Absorbance, KH2PO4-Na2HPO4
[4] = pH 6.2, GdnHCl, CD, KH2PO4-Na2HPO4
[5] = pH 6.2, Urea, Absorbance, KH2PO4-Na2HPO4
[6] = pH 6.2, Urea, CD, KH2PO4-Na2HPO4
[7] = pH 8.3, GdnHCl, Absorbance, KHPO4-Na2HPO4/NaOH
[8] = pH 8.3, GdnHCl, CD, KHPO4-Na2HPO4/NaOH
[9] = pH 8.3, Urea, Absorbance, KHPO4-Na2HPO4/NaOH
[10] = pH 8.3, Urea, CD, KHPO4-Na2HPO4/NaOH

B1: Beta-lactoglobulin wild type, P02754 (protein)
chain: MKCLLLALALTCGAQALIVTQTMKGLDIQKVAGTWYSLAMAASDISLLDAQSAPLRVYVEELKPTPEGDLEILLQKWENGECAQKKIIAEKTKIPAVFKIDALNENKVLVLDTDYKKYLLFCMENSAEPEQSLACQCLVRTPEVDDEALEKFDKALKALPMHIRLSFNPTQLEEQCHI
Q: Which denaturant m value [1] does the source give for B1 here?
A: 3.9 kcal/mol/M

Q: And the “denaturant midpoint (higher = more stable)” value (shortened to “denaturant midpoint”) [1]?
A: 3.4 M

Q: What about the unfolding free energy [1] of the same protein?
A: 13.4 kcal/mol

Q: What about the denaturant m value [2] of the same protein?
A: 3.8 kcal/mol/M and 4.4 kcal/mol/M

Q: And the “denaturant midpoint” value [2]?
A: 3.5 M

Q: And the unfolding free energy [2]?
A: 13 kcal/mol and 15.2 kcal/mol

Q: What about the denaturant m value [3] of the same protein?
A: 2.5 kcal/mol/M

Q: And the “denaturant midpoint” value [3]?
A: 2.7 M

Q: What about the unfolding free energy [3] of the same protein?
A: 8.4 kcal/mol

Q: What about the denaturant m value [4] of the same protein?
A: 3.3 kcal/mol/M and 2.5 kcal/mol/M

Q: What about the “denaturant midpoint” value [4] of the same protein?
A: 2.9 M and 2.7 M

Q: What about the unfolding free energy [4] of the same protein?
A: 9.5 kcal/mol and 6.9 kcal/mol

Q: What about the denaturant m value [5] of the same protein?
A: 0.9 kcal/mol/M

Q: And the “denaturant midpoint” value [5]?
A: 4.1 M

Q: What about the unfolding free energy [5] of the same protein?
A: 3.7 kcal/mol

Q: What about the denaturant m value [6] of the same protein?
A: 0.7 kcal/mol/M and 0.6 kcal/mol/M

Q: What about the “denaturant midpoint” value [6] of the same protein?
A: 3.5 M and 2.1 M

Q: And the unfolding free energy [6]?
A: 2.3 kcal/mol and 1.4 kcal/mol

Q: What about the denaturant m value [7] of the same protein?
A: 3.2 kcal/mol/M

Q: And the “denaturant midpoint” value [7]?
A: 2.3 M

Q: And the unfolding free energy [7]?
A: 7.6 kcal/mol

Q: And the denaturant m value [8]?
A: 3 kcal/mol/M and 3.4 kcal/mol/M

Q: What about the “denaturant midpoint” value [8] of the same protein?
A: 2 M

Q: What about the unfolding free energy [8] of the same protein?
A: 5.9 kcal/mol and 6.9 kcal/mol

Q: And the denaturant m value [9]?
A: 1.1 kcal/mol/M

Q: And the “denaturant midpoint” value [9]?
A: 3.5 M

Q: What about the unfolding free energy [9] of the same protein?
A: 4 kcal/mol

Q: And the denaturant m value [10]?
A: 1.5 kcal/mol/M and 1.4 kcal/mol/M

Q: And the “denaturant midpoint” value [10]?
A: 4.4 M and 3.6 M

Q: What about the unfolding free energy [10] of the same protein?
A: 6.4 kcal/mol and 5 kcal/mol
